Patent US20200308241A1 (published 2020)

Experiments:
[1] = target: T1, Purified EGFR (R&D Systems, Minneapolis, Minn.) (Homo sapiens (Human), UniProt P00533 25-645); assay: EGF-EGFR binding assay
T1 construct: Bought protein coated on an ELISA plate; also called immobilized EGFR; EGF receptors
Experimental: (§1) Purified EGFR (R&D Systems, Minneapolis, Minn.) was diluted in coating buffer (0.2 M sodium carbonate/bicarbonate pH 9.4, 0.5 1 g/mL) and immobilized on an ELISA plate by incubation at 4° C. overnight. […] The peroxidase reaction was stopped 30 min after the addition of 0.5 M H₂SO₄ ([…]/well), and the absorbance was measured at 450 nm with a multichannel microtiter plate reader.

[2] = target: T1, Purified EGFR (R&D Systems, …); assay: ELISA, EGFR on the plate, his6-tagged ligand 0-50 nM, HRP anti-his6 detection
Experimental: as §1

Kd [1]: ~0.01 µM
Kd [2]: < 0.005 µM
B1: mGM-CSF-hEGF fusion protein of Example 1 (other)
chain: SPITVTRPWKHVEAIKEALNLLDDMPVTLNEEVEVVSNEFSFKKLTCVQTRLKIFEQGLRGNFTKLKGALNMTASYYQTYCPPTPETDCETQVTTYADFIDSLKTFLTDIPFECKKPGQKVPGVGVPGVGNSDSECPLSHDGYCLHDGVCMYIEALDKYACNCVVGYIGERCQYRDLKWWELRHHHHHH
notes: The assays call it his6-tagged; also called GM-CSF-EGF conjugate; GM-CSF-EGF fusion protein
